The assay has as its target T1, S. pombe Uba1 (S. pombe) (UniProt O94609).
T1 sequence: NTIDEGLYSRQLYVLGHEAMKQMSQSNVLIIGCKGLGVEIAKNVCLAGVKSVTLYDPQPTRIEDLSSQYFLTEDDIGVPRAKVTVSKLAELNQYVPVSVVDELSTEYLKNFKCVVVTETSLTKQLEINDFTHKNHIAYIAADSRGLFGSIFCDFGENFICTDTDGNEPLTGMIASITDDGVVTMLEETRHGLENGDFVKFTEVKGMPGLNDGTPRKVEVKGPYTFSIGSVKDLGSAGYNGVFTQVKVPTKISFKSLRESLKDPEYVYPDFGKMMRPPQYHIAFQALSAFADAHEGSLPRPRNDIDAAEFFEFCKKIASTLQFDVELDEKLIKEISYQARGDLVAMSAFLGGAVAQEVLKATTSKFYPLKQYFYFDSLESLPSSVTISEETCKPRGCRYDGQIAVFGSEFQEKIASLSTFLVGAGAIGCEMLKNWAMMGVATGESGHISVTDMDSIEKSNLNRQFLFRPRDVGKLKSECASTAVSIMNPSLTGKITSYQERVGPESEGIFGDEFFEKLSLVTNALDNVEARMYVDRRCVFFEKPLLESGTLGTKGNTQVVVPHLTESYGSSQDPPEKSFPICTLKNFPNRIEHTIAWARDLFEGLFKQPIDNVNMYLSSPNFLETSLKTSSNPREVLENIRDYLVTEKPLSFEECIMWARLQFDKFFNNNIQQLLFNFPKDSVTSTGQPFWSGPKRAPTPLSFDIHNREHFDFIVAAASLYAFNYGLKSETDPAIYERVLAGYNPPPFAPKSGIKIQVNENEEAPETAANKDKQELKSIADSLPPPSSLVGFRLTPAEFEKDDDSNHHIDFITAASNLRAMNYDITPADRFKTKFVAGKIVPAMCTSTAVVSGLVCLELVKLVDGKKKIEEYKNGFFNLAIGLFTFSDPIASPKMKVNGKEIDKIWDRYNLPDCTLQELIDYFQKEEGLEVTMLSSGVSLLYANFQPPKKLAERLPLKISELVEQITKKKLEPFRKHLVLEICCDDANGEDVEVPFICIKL

B1: Ubc15 L67F (enzyme)
chain: MPSSASEQLLRKQLKEIQKNPPQGFSVGLVDDKSIFEWEVMIIGPEDTLYEGGFFHATLSFPQDYPFMPPKMKFTTEIWHPNVHPNGEVCISILHPPGDDKYGYEDAGERWLPVHSPETILISVISMLSSPNDESPANIDAAKEFRENPQEFKKRVRRLVRRSIEMI
In the case of B1, the fold decrease in E1-E2 Ub thioester transfer assay (Figure 2E) worked out at 2 fold.
